Where two headings read alike, the source gives them in different places.
Experiments:
[1] = target: SARS-COV-2 RBD-MMH (SARS-CoV-2); test: SPR 37C
[2] = target: T1, human FcγR3a 176Val allotype receptor (human, UniProt P08637 17-254); test: cell-based or functional assay
[3] = target: SARS-COV-2 RBD-MMH (SARS-CoV-2); test: SPR 37C, run with dissociation at pH 5.0
[4] = target: SARS-COV-2 RBD-MMH (SARS-CoV-2); test: SPR 37C, run with dissociation at pH 7.4
[5] = target: T1, human FcγR3a 176Val allotype receptor; test: cell-based or functional assay; remark: listed apart in the source

B1: mAb14283 (antibody)
heavy: not shown
light: QSALTQPASVSGSPGQSTTISCTGTSSDVGGYNYVSWYQQYPGKAPKLMIYDVTNRPSGVSHRFSGSKSGNTASLTISGLQAEDEADYYCSSYTSSSTVIFGGGTKLTVLGQPKAAPSVTLFPPSSEELQANKATLVCLISDFYPGAVTVAWKADSSPVKAGVETTTPSKQSNNKYAASSYLSLTPEQWKSHRSYSCQVTHEGSTVEKTVAPTECS
B1 was tested, and the “t½ Ratio of pH 7.4 to pH 5.0” value [1] was 3, the “EC50 (M), Jurkat/CD20/spike” value [2] was 1.39e-10 M and the “Fold induction, Jurkat CD20” value [2] was 1.1 fold. For the same binder, the “Fold induction, Jurkat/CD20/spike” value [2] was 9.1 fold, the “RBD.mmh Bound at pH 7.4 (RU)” value [3] was 91.7 RU and the koff [3] was 0.00512 s⁻¹. The t½ [3] was 2.3 min, the “RBD.mmh Bound at pH 7.4 (RU)” value [4] was 87.7 RU and the koff [4] was 0.00169 s⁻¹.

B2: mAb14286 (antibody)
heavy: not shown
light: QSALTQPASVSGYPGQSITISCTGTSSDVGGYNYVSWYQQHPGKAPKLMIFDVSNRPSGVSNRFSGSKSGNTASLTFSGLQAEDEADYYCSSYTSSSTLVFGGGTKLTVLGQPKAAPSVTLFPPSSEELQANKATLVCLISDFYPGAVTVAWKADSSPVKAGVETTTPSKQSNNKYAASSYLSLTPEQWKSHRSYSCQVTHEGSTVEKTVAPTECS
For B2, the “t½ Ratio of pH 7.4 to pH 5.0” value [1] was 0.7, the “EC50 (M), Jurkat/CD20/spike” value [2] was 2.04e-10 M and the “Fold induction, Jurkat CD20” value [2] was 1 fold. The “Fold induction, Jurkat/CD20/spike” value [2] was 11 fold, the “RBD.mmh Bound at pH 7.4 (RU)” value [3] was 82.4 RU and the koff [3] was 0.00664 s⁻¹. The t½ [3] was 1.7 min, the “RBD.mmh Bound at pH 7.4 (RU)” value [4] was 84.3 RU and the koff [4] was 0.00968 s⁻¹.

B3: mAb14255 (antibody)
heavy: not shown
light: QSALTQPASVSGSPGQSITISCTGTSSDVGSYNLVSWYQQHPGKAPKLMIYEDSKRPSGVANPFSGSKSGNTASLTISGLQAEDEADYYCSSYAGSSTWVFGGGTKLTVLGQPKAAPSVTLFPPSSEELQANKATLVCLISDFYPGAVTVAWKADSSPVKAGVETTTPSKQSNNKYAASSYLSLTPEQWKSHRSYSCQVTHEGSTVEKTVAPTECS
In the case of B3, the “t½ Ratio of pH 7.4 to pH 5.0” value [1] is reported as 1.3, the “EC50 (M), Jurkat/CD20/spike” value [2] is reported as 1.67e-10 M and the “Fold induction, Jurkat CD20” value [2] is reported as 1 fold. For the same binder, the “Fold induction, Jurkat/CD20/spike” value [2] was 9.5 fold, the “EC50 (M), Jurkat/CD20/spike” value [5] was 1.88e-10 M and the “Fold induction, Jurkat CD20” value [5] was 1.1 fold. For the same binder, the “Fold induction, Jurkat/CD20/spike” value [5] was 3.2 fold, the “RBD.mmh Bound at pH 7.4 (RU)” value [3] was 94.1 RU and the koff [3] was 0.00635 s⁻¹. For the same binder, the t½ [3] was 1.8 min, the “RBD.mmh Bound at pH 7.4 (RU)” value [4] was 97.5 RU and the koff [4] was 0.00493 s⁻¹.

B4: mAb14315 (antibody)
heavy: not shown
light: EIVLTQSPGTLSLSPGERATLSCRASQSVSSNYLAWYQQKPGQAPRLLIYGASSRATGIPERFSGSGSGTDFTLTISRLEPEDFAVYYCQQYGSSLYTFGQGTKLEIKRTVAAPSVFIFPPSDEQLKSGTASVVCLLNNFYPREAKVQWKVDNALQSGNSQESVTEQDSKDSTYSLSSTLTLSKADYEKHKVYACEVTHQGLSSPVTKSFNRGEC
With B4 the “t½ Ratio of pH 7.4 to pH 5.0” value [1] was 0.7, the “EC50 (M), Jurkat/CD20/spike” value [2] was 6.24e-11 M and the “Fold induction, Jurkat CD20” value [2] was 1.1 fold. The “Fold induction, Jurkat/CD20/spike” value [2] was 9.3 fold, the “RBD.mmh Bound at pH 7.4 (RU)” value [3] was 101 RU and the koff [3] was 0.0007 s⁻¹. The t½ [3] was 16.5 min, the “RBD.mmh Bound at pH 7.4 (RU)” value [4] was 83.3 RU and the koff [4] was 0.00098 s⁻¹.

B5: mAb14256 (antibody)
heavy: not shown
light: QSVLTQPPSVSGAPGQRVTISCTGSSSNIGTHYDVHWYQQLPGTAPKLLIYGNSNRPSGVPDRFSGSKSGTSASLAITGLQAEDEADYYCQSFDNSLTAPYVFGTGTKVTVLGQPKAAPSVTLFPPSSEELQANKATLVCLISDFYPGAVTVAWKADSSPVKAGVETTTPSKQSNNKYAASSYLSLTPEQWKSHRSYSCQVTHEGSTVEKTVAPTECS
With B5 the “t½ Ratio of pH 7.4 to pH 5.0” value [1] was 0.8, the “EC50 (M), Jurkat/CD20/spike” value [2] was 4.48e-10 M and the “Fold induction, Jurkat CD20” value [2] was 1 fold. For the same binder, the “Fold induction, Jurkat/CD20/spike” value [2] was 6.1 fold, the “EC50 (M), Jurkat/CD20/spike” value [5] was 5.75e-10 M and the “Fold induction, Jurkat CD20” value [5] was 1.1 fold. The “Fold induction, Jurkat/CD20/spike” value [5] was 2 fold, the “RBD.mmh Bound at pH 7.4 (RU)” value [3] was 54.1 RU and the koff [3] was 0.00927 s⁻¹. The t½ [3] was 1.2 min, the “RBD.mmh Bound at pH 7.4 (RU)” value [4] was 80.2 RU and the koff [4] was 0.0111 s⁻¹.

B6: mAb14289 (antibody)
heavy: not shown
light: EIVLTQSPGTLSLSPGERATLSCRASQSVSSYLAWYQQKPGQAPRLLIHGASSRATGIPDRFSGSGSGTDFTLTISRLEPEDFAVYYCQQYGSSFLTFGGGTKVEIKRTVAAPSVFIFPPSDEQLKSGTASVVCLLNNFYPREAKVQWKVDNALQSGNSQESVTEQDSKDSTYSLSSTLTLSKADYEKHKVYACEVTHQGLSSPVTKSFNRGEC
With B6 the “t½ Ratio of pH 7.4 to pH 5.0” value [1] was 2.5, the “EC50 (M), Jurkat/CD20/spike” value [2] was 1.3e-10 M and the “Fold induction, Jurkat CD20” value [2] was 1 fold. The “Fold induction, Jurkat/CD20/spike” value [2] was 6.3 fold, the “RBD.mmh Bound at pH 7.4 (RU)” value [3] was 89.3 RU and the koff [3] was 0.0046 s⁻¹. The t½ [3] was 2.5 min, the “RBD.mmh Bound at pH 7.4 (RU)” value [4] was 86.1 RU and the koff [4] was 0.00185 s⁻¹.

B7: mAb14284 (antibody)
heavy: not shown
light: QSALTQPASVSGSPGQSITISCTGTSSDLGVFNYVSWYQQHPGKAPKLMIYEVTNRPSGVSNRFSGSKSGNTASLTISGLQAEDEADYYCSSYTTSSTVFGGGTKLTVLGQPKAAPSVTLFPPSSEELQANKATLVCLISDFYPGAVTVAWKADSSPVKAGVETTTPSKQSNNKYAASSYLSLTPEQWKSHRSYSCQVTHEGSTVEKTVAPTECS
notes: also called REGN14284
For B7, the “t½ Ratio of pH 7.4 to pH 5.0” value [1] was 1.2, the “EC50 (M), Jurkat/CD20/spike” value [2] was 1.56e-10 M and the “Fold induction, Jurkat CD20” value [2] was 1.1 fold. The “Fold induction, Jurkat/CD20/spike” value [2] was 9 fold, the “RBD.mmh Bound at pH 7.4 (RU)” value [3] was 159 RU and the koff [3] was 0.000736 s⁻¹. The t½ [3] was 15.7 min, the “RBD.mmh Bound at pH 7.4 (RU)” value [4] was 147 RU and the koff [4] was 0.000624 s⁻¹.

B8: mAb14294 (antibody)
heavy: not shown
light: EIVLTQSPGTLSLSPGERATLSCRASQSVSSSQLAWYQQKPGQAPRLLIYGASSRATGIPDRFSGSGSGTDFTLTISRLEPEDFAVYYCQQYDSFGQGTKLEIKRTVAAPSVFIFPPSDEQLKSGTASVVCLLNNFYPREAKVQWKVDNALQSGNSQESVTEQDSKDSTYSLSSTLTLSKADYEKHKVYACEVTHQGLSSPVTKSFNRGEC
For B8, the “t½ Ratio of pH 7.4 to pH 5.0” value [1] was 0.5, the “EC50 (M), Jurkat/CD20/spike” value [2] was 6.04e-11 M and the “Fold induction, Jurkat CD20” value [2] was 1 fold. For the same binder, the “Fold induction, Jurkat/CD20/spike” value [2] was 10.5 fold, the “RBD.mmh Bound at pH 7.4 (RU)” value [3] was 97.6 RU and the koff [3] was 0.000452 s⁻¹. The t½ [3] was 25.5 min, the “RBD.mmh Bound at pH 7.4 (RU)” value [4] was 83.2 RU and the koff [4] was 0.00092 s⁻¹.

B9: mAb14282 (antibody)
heavy: not shown
light: QSALTQPASVSGSPGQSITISCTGTSSDVGSYNLVSWYQQHPGKAPKLMIYELTKRPSGVSNRFSGSKSGNTASLTISGLQAEDEADYYCSSYRGSVTDVVFGGGTKLTVLGQPKAAPSVTLFPPSSEELQANKATLVCLISDFYPGAVTVAWKADSSPVKAGVETTTPSKQSNNKYAASSYLSLTPEQWKSHRSYSCQVTHEGSTVEKTVAPTECS
In the case of B9, the “t½ Ratio of pH 7.4 to pH 5.0” value [1] is reported as 0.5, the “EC50 (M), Jurkat/CD20/spike” value [2] is reported as 2.57e-10 M and the “Fold induction, Jurkat CD20” value [2] is reported as 1.1 fold. The “Fold induction, Jurkat/CD20/spike” value [2] was 10.7 fold, the “RBD.mmh Bound at pH 7.4 (RU)” value [3] was 62.4 RU and the koff [3] was 0.00671 s⁻¹. The t½ [3] was 1.7 min, the “RBD.mmh Bound at pH 7.4 (RU)” value [4] was 73.5 RU and the koff [4] was 0.0126 s⁻¹.

B10: mAb14257 (antibody)
heavy: not shown
light: QSVLTQPPSVSGAPGQRVTISCTGTSSNIGADFDVHWYQQFPGTAPKLLIYGHTNRPSGIPDRFSGSKSGTSASLAITGLQAEDEADYYCQSYDSSLSGSVVFGGGTKLTVLGQPKAAPSVTLFPPSSEELQANKATLVCLISDFYPGAVTVAWKADSSPVKAGVETTTPSKQSNNKYAASSYLSLTPEQWKSHRSYSCQVTHEGSTVEKTVAPTECS
B10 was tested, and the “t½ Ratio of pH 7.4 to pH 5.0” value [1] was 2.1, the “EC50 (M), Jurkat/CD20/spike” value [2] was 2.39e-10 M and the “Fold induction, Jurkat CD20” value [2] was 1 fold. For the same binder, the “Fold induction, Jurkat/CD20/spike” value [2] was 8.8 fold, the “EC50 (M), Jurkat/CD20/spike” value [5] was 2.63e-10 M and the “Fold induction, Jurkat CD20” value [5] was 1.2 fold. For the same binder, the “Fold induction, Jurkat/CD20/spike” value [5] was 2.2 fold, the “RBD.mmh Bound at pH 7.4 (RU)” value [3] was 45.2 RU and the koff [3] was 0.0172 s⁻¹. For the same binder, the t½ [3] was 0.7 min, the “RBD.mmh Bound at pH 7.4 (RU)” value [4] was 82.3 RU and the koff [4] was 0.00778 s⁻¹.

B11: mAb14312 (antibody)
heavy: not shown
light: QSVLTQPPSVSGAPGQRVTISCTGSSSNIGAGDDVHWYQQLPGTAPKLLIYGNSNRPSGVPDRFSGSKSGTSASLAITGLQAEDEADYYCQSYDSSLSGSVVFGGGTKLTVLGQPKAAPSVTLFPPSSEELQANKATLVCLISDFYPGAVTVAWKADSSPVKAGVETTTPSKQSNNKYAASSYLSLTPEQWKSHRSYSCQVTHEGSTVEKTVAPTECS
B11 was tested, and the “t½ Ratio of pH 7.4 to pH 5.0” value [1] was 6.4, the “EC50 (M), Jurkat CD20” value [2] was 1.84e-08 M and the “EC50 (M), Jurkat/CD20/spike” value [2] was 1.68e-10 M. The “Fold induction, Jurkat CD20” value [2] was 2 fold, the “Fold induction, Jurkat/CD20/spike” value [2] was 7.5 fold and the “RBD.mmh Bound at pH 7.4 (RU)” value [3] was 96.7 RU. For the same binder, the koff [3] was 0.00558 s⁻¹, the t½ [3] was 2.1 min and the “RBD.mmh Bound at pH 7.4 (RU)” value [4] was 95.2 RU. The koff [4] was 0.000859 s⁻¹.
